EC50 of the rec-eelFSH-stimulated cAMP response (HTRF) in transfected CHO-K1 cells, 30 min and EC50 of the rec-eelFSH-stimulated cAMP response (HTRF) in transfected CHO-K1 cells, 30 min (series with the inactivating mutants) data for 1 substance are collected here from publication PMC7583038.

In test [1] the target is wild-type eel follicle-stimulating hormone receptor (eel).
For test [2] the target is unchanged. This is another data set of the same source.

Consider “recombinant eel follicle-stimulating hormone (ligand)”, for which the EC50 of the rec-eelFSH-stimulated cAMP response (HTRF) in transfected CHO-K1 cells, 30 min with eelFSHR-D540N (eel) was determined as 0.544 µg/mL; with eelFSHR-D540G (eel) it was 0.359 µg/mL; in test [1], 0.524 µg/mL; with eelFSHR-R546C (eel) it was 0.385 µg/mL. Further, the EC50 of the rec-eelFSH-stimulated cAMP response (HTRF) in transfected CHO-K1 cells, 30 min (series with the inactivating mutants) in test [2] came out at 0.314 µg/mL.
